# Test results: the supplement of paper PMC9170038
# Test system: K4 kissing-loop RNA reporter
# Experiment: apparent KD of K4 kissing-loop reporter; higher = weaker reporter binding
# Settings: Eterna round: R107; input ligand: FMN 200 uM
# Protocol: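 RNA-MaP round R107: designed RNA switches with theophylline, tryptophan, arginine or FMN aptamers are transcribed on-chip within common flanks. They are titrated with a labelled K4 kissing-loop RNA reporter in RNA-MaP buffer (100 mM Tris pH 7.5, 80 mM KCl, 4 mM MgCl2), without ligand or with the indicated ligand. Median apparent KD per design.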
# 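Note: bound reporter read as fluorescence of individual clusters on recovered sequencing chips by microscopy, with normalized cluster intensities fitted with a binding model.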
row,Sequence,apparent KD of K4 kissing-loop reporter [nM]
1,UGUGAACAAAAGUAGAGUGGACCACUAUAGCGAGGACCGGUACGGCCGCCACUCGUACAUGUAUUCAGUGAUGUUGAAAUGAGCU [whbob_EX_Tryp_A_t15],200
2,GUCCCGAGUGAUGUUCGGGUCGUUUGGGAAGGAGCGCCCGGAAGGGCAGGUAGGUCGCCCGGACCCUGCAGGUAACUGUUGGGCC [#2 Same State - Arginine A Attempt #19 (HarryS)],206
3,UUUGGUUUCUCGGCCGCCACUCGUGGGAAAUGGGCCUCAGGGAUAUAGUGAUGUUAUGUAAAGAAGAGGACCGGGAGAAGGAAGG [ExTryptoB.Dl],300
4,AAACGCUGUGAAUAACACAGCGAAAAUUCGCGAGGACCGGUACGGCCGCCACUCGCUAACUGCGAGUGAUGUUCGAUAAUAAAAU [Mat - Mod of OpenEnded 3 - D11],182
5,CCGGCCCGGCCGGAUACCAGUGCGCCGCUGGGAACUGCGGGCCCAGAGUGAUGUUCGGGACACCCUUGGCAGCCGCCUGGGUCGC [#2 Same State - Theophylline B Attempt #25 (HarryS)],450
6,ACGUGCACUAGUGAUGUUAGAAAAUACGAAGGAGCGGGCGAAAGCCCAGGUAGGUCGCGUAAUAGCACGAGCCACGAAAGUGGCA,254
7,UAUCUUUACUGAAGGAGCGAGCAUUUUGGAGUGAUGUUCCGAGCGAGUGAUGUUCGCAUAGCUCAGGUAGGUCGCAGUGGGAAAA [Same State Arginie B GF 15],152
8,UCGAGUUGACGAAAAGUCAACUCGUGAGAUACCAGUGACGAAAGUCACCCUUGGCAGCUCACUGCCAGUGAUGUUGGUGUAUAGA [#06 K4 Theophylline A Same State],856
9,GAUUUAGAGGCGGCCGCCACUAGUGAUGUUAGUGAUGUUUGAUACUGUAUAUAUCGGCGUGUAGAUAGGACCGGGCCUGAUGGAG [drrdmullin],259
10,AAGUAGCUCUCGGCCGCCACUCCUCAGUGAUGUUGAGAUAUUAAUUGCCAAUUGGCGUAUUUAAAGAGGACCGGGAGAGCUACAA [AK3 SS Tryptophan B],368
11,UCUUGAGUAUAUGAUACCAGCAGUGAGAGACAGGAAGUAUAGUGAUGUUAUAUGAGAGAAUGCCCUUGGCAGCGUGUGCGGUGGG [SSTheophylB.S],103
12,AACUUGUUUGGAGGAUAUUCUUUAUUCGACAUAACCUUCUAUAAGGUGCAGUGAUGUUGCAAUAUAGGAGAAGGUCGAGUGAGAA [Exclusion FMN B Gf 16],207
13,GUAGCACUUGACAGUGAUGUUGUCAAGGACAAGGAUAUCAUCUCAAUGAGAAGGUGUCCUUGAUAACAGCUACGGGAAUAUCCCA [Omei KL FMN A Exc D v3],312
14,AAGUUGAACUGAAGGAGCGAGAAAUAGAAUGUAAGAAUAUAUGCUAGUGAUGUUAGAAAUUCUCAGGUAGGUCGCAGUAAGUUUU [V2],363
15,UGAUACCAGACUGAUACCAGCGAGUGAUGUUUGCUGAAAUCAGGGUCAAAGACCCUGUCUCGCCCUUGGCAGCAGUCUGGUAUCU [TheoBX 21 #SwitchBubble #StaticStem],735
16,AGAGCGGUCGAAGGAUAUGAGACAACCAACGGUGAGUGAUGUUUGCCGAGUAAACCUCUAGUUGCGUCAGAAGGUCGGCUCAGUC [theeternabot_sameState_KL_FMN_B_25],595
17,AAAUUCUUUUUUUUAUUUAAGUUUUCAGAAGGAGCGUGGUAGUACACAGGUAGGUCGCUGAAUUUUGGGCUAGUGAUGUUAGUUA [whbob_SS_Arginine_A_sa114],144
18,AAAACGCUGGAUGAAUAACAUCUAGCGAAUCGAGGACCGGUACGGCCGCCACUCGGAGCUAAACUGCGAGUGAUGUUCGUAAAAU [Mat - Mod of OpenEnded 3 - D18],405
19,CGCGUAUCGGCAGGAUAUGGAGUUGAGUGAUGUUCAGCAAUGGGUCAUCAUCUUUAUGACAAUCCACCAGAAGGGCCGAUACGCG,622
20,GAAACGUUGCGGACUAUCGCAUAAAGUCACCGAGGACCGGUACGGCCGCCACUCGCCAGUGAUGUUGGCGUGUUUGCGCGCUGUG [Titebebi],104
21,AAAUAUUCGAGUGAUGUUCGUUAAAUUACAGAGGAUAUGCUUAAAAGCAGAAGGCUGUAUUUCUAUUUGUUAUGUAAUUUUAAAA [JR_ExcFMNA_Sub004],117
22,AACCGAGGUAAUCCACAAAGAUAACAUGAUACCAGAUAUAUAAAUAUCCCUUGGCAGCAUGGCAUGAGUGAUGUUCAUGUGUCUU [KL-SSTheo-A10],441

row,Sequence,apparent KD of K4 kissing-loop reporter [nM]
1,GGAAGAAGUGGUGUUGAUUAAGAAGCGGAAGGAGCGCCGAAGAAGGCAGGUAGGUCGCCGAAAUAUAGUGAUGUUAUAUAAAAGG [ExArg.A],168
2,CGUGCCCGGCCGGAUACCAGUGACCCGCUGGGAACCGCGGGCCCAGAGUGAUGUUCGGGACACCCUUGGCAGCCGCCUGGGCGGC [#2 Same State - Theophylline B Attempt #13 (HarryS)],987
3,AUUCUUAUAAUAACACUAUAUACAACUGAAGGAGCGACAAUAAAGUCAGGUAGGUCGCAGAAUAAAUGAGUGAUGUUCAUUUUUA [JR_ExcArginiA_Sub011],129
4,GCGCGUCAUGUCAGCGGUGACACUGUCGAUACCAGUGCCGGAAGGCGCCCUUGGCAGCGACGUGCUGGAGUGAUGUUCCAGCGUU [#2 Exclusion - Theophylline A Attempt #28 (HarryS)],136
5,AAGCAGUCACUCGUAUCCAUCGAAGAUGGUCGAGGACCGGUACGGCCGCCACUCGGAGUGAUGUUCCGAAGACUGCAAAAUAAAA [#SwitchBubble 13],240
6,UGGUUUGGAAGUGAUGUUUCUAUAAGUGAUACCAGACAAAAGAAAGUCCCUUGGCAGCACAAUGAUGCCAAGGAAACGGCAUGAU [#15 K4 Theophylline A Same State],179
7,UAGCGUAUCAGAGGAUAUGAUAUGUUAUGCAGUGAUGUUGCAUGAUGUAGCAGAAUUCUGAGUGUAUCAGAAGGCUGAUAUGCUA [FMN B Ex t3],171
8,GCCGUAGAUUGAAGGAGCGUUCUUACUGAGUACGGCAACCGGAAGUGAUGUUUCCAGGUGGAACAGGUAGGUCGCAAUCUACGGC,102
9,AAGUGAUGUUGUAGUGAUGUUGUGAUGUUGCAGGAUAUAUAGUGAUGUAGAAGGGUAUGUGCAGUGUUGUUAUUUGAGUGUUGAU [zffdmullin],89.7
10,GGAUAGGAUAGAGGAUAUGGAAAACACAGAAAUAACUUGUUGUGUUUAUCCAUAGGGAGUGAUGUUCCAGAAGGCUGUCCUAUCG [MatMod 20 - Jieux - Exclusion - FMN B],284
11,CCGCUACCCUCAGGAUAUUAAAUAUUAGUGAUGUUAAUAAACCGAUGGCGAAAGCCAUCGGUAUGUUGAGAAGGGAGGGUAGCGG [whbob_SS_FMNB__2th196],145
12,UUUGUAUAGGGAAGGAGCGUGAAUGAGAAAGAAUAUAGUGAUGUUAUAUAGAAGAAAGAAUCACAGGUAGGUCGCCCGGAGGAGG [SSArgB.G],484
13,UUAGUCAGAUUAUUAUUAGCCUGCGAGACUAAGGAUAUCCGAAUUCGGAGAAGGUAGUGAUGUUACUUUGGCAGGCACUGACAUU [AK8 Exc FMN A],890
14,CACGGAGUGAUGUUCCGACCGAGGAACGAUACCAGACAAGUAUACGUCCCUUGGCAGCGUUUCUUAUAUAGUCAACGUUACCGUA [Theo A Ex t3],395
15,UUAGUCUAGAGAAGGAGCGAGUGAUGUUCGCAGCCCAAAUAAUAAUAAUAAUAAGGGCAUCCUCAGGUAGGUCGCUCUAGACAUU [AK5 Exc Arginine B],335
16,GGCUUAUUCUAUGAUACCAGCGUCACAUCGGGACUGCGCACGCAGCAGGCGAGUGAUGUUCGCCCUUGGCAGCAUCUCGGCGACU [theeternabot_exclusion_KL_Theo_B_26],373
17,UUUUUGGAGAAUUAUAGUGAUGUUAUGAAGAAGGAUAUCUAAAGAUGGAGAAGGUUUAAUAGUUAAGGGAUGGAGGGUGGGUGGG [ExFMNA.P],282
18,GUAGCACUUGAUAGUGAUGUUAUCAAGGACAAGGAUAUCAUCUCAAUGAGAAGGUGUCCUUGAUAACAGCUACGGGAAUAUCCCA [Omei KL FMN A Exc D v1],103
19,ACACUUUACGUAGGAUAUGCGACGAGUGAUGUUCGUCAGGCGGCUUUAGCUUAAUCAGGCCGCCUAGCAGAAGGACGGGCAGUGU [Zaretiesre],142
20,AAAAUAAAUCAGUGAUGUUGGUAUCCGGAUACCAGCGAUAAUCAUCGCCCUUGGCAGCCGUGGACGUACAAAAUAAGUACGUCCU [MatMod 16 - Jieux - Same State - Theophylline A],137
21,UAGGAGUGAUGUUCCUAUAGCAGGUAGGAAGGAGCGCCCAUUUGGGCAGGUAGGUCGCCUACCGGCCCUAAGUUAAACCUUAGGC [Rariar],99.6

# Same assay, conditions: Eterna round: R107; input ligand: arginine 13.2 mM
row,Sequence,apparent KD of K4 kissing-loop reporter [nM]
1,UGUGAACAAAAGUAGAGUGGACCACUAUAGCGAGGACCGGUACGGCCGCCACUCGUACAUGUAUUCAGUGAUGUUGAAAUGAGCU [whbob_EX_Tryp_A_t15],319
2,GUCCCGAGUGAUGUUCGGGUCGUUUGGGAAGGAGCGCCCGGAAGGGCAGGUAGGUCGCCCGGACCCUGCAGGUAACUGUUGGGCC [#2 Same State - Arginine A Attempt #19 (HarryS)],154
3,UUUGGUUUCUCGGCCGCCACUCGUGGGAAAUGGGCCUCAGGGAUAUAGUGAUGUUAUGUAAAGAAGAGGACCGGGAGAAGGAAGG [ExTryptoB.Dl],253
4,AAACGCUGUGAAUAACACAGCGAAAAUUCGCGAGGACCGGUACGGCCGCCACUCGCUAACUGCGAGUGAUGUUCGAUAAUAAAAU [Mat - Mod of OpenEnded 3 - D11],94.8
5,CCGGCCCGGCCGGAUACCAGUGCGCCGCUGGGAACUGCGGGCCCAGAGUGAUGUUCGGGACACCCUUGGCAGCCGCCUGGGUCGC [#2 Same State - Theophylline B Attempt #25 (HarryS)],345
6,ACGUGCACUAGUGAUGUUAGAAAAUACGAAGGAGCGGGCGAAAGCCCAGGUAGGUCGCGUAAUAGCACGAGCCACGAAAGUGGCA,271
7,UAUCUUUACUGAAGGAGCGAGCAUUUUGGAGUGAUGUUCCGAGCGAGUGAUGUUCGCAUAGCUCAGGUAGGUCGCAGUGGGAAAA [Same State Arginie B GF 15],149
8,UCGAGUUGACGAAAAGUCAACUCGUGAGAUACCAGUGACGAAAGUCACCCUUGGCAGCUCACUGCCAGUGAUGUUGGUGUAUAGA [#06 K4 Theophylline A Same State],840
9,GAUUUAGAGGCGGCCGCCACUAGUGAUGUUAGUGAUGUUUGAUACUGUAUAUAUCGGCGUGUAGAUAGGACCGGGCCUGAUGGAG [drrdmullin],176
10,AAGUAGCUCUCGGCCGCCACUCCUCAGUGAUGUUGAGAUAUUAAUUGCCAAUUGGCGUAUUUAAAGAGGACCGGGAGAGCUACAA [AK3 SS Tryptophan B],315
